From patent US10786543B2, “P75NTR antagonists and treatment of acute and chronic cardiac disease” (THE JOHNS HOPKINS UNIVERSITY, priority 2015, dated 2020)
Ends that are not written are not given here.

B1: proBDNF: uncleaved (immature) neurotrophin, pro-brain derived neurotrophic factor, activates p75^NTR (protein, UniProt P23560 19-247, looked up)
pro-form: APMKEANIRGQGGLAYPGVRTHGTLESVNGPKAGSRGLTSLADTFEHVIEELLDEDQKVRPNEENNKDADLYTSRVMLSSQVPLEPPLLFLLEEYKNYLDAANMSMRVRRHSDPARRGELSVCDSISEWVTAADKKTAVDMSGGTVTVLEKVPVSKGQLKQYFYETKCNPMGYTKEGCRGIDKRHWNSQCRTTQSYVRALTMDSKKRIGWRFIRIDTSCVCTLTIKRGR
modifications: pro-form

Experiments:
[1] = biological target: T1, p75^NTR (Mus musculus, UniProt Q9Z0W1); test: Transverse aortic constriction (TAC) pressure overload/heart failure with chronic P75NTR antagonist infusion, echocardiography; type: in vivo; settings: TAC mice; chronic infusion for 5 weeks, instituted 1 week after TAC; 200 μg/kg/day s.c. osmotic pump; FIG. 3
T1 construct: from tissue; host or cells: living mice (heart and other tissues) after transverse aortic constriction
T1 sequence (Q9Z0W1 32-427): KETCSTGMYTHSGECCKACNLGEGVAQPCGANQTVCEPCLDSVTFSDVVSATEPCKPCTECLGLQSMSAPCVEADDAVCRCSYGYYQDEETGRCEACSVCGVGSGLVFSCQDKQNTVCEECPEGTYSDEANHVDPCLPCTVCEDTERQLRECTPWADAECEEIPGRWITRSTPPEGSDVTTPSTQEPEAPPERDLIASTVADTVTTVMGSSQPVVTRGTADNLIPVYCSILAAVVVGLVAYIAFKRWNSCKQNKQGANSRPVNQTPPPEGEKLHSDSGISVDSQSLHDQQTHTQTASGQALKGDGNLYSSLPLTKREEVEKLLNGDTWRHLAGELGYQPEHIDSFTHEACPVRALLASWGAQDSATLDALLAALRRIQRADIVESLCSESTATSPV
Description: Transverse aortic constriction (TAC) was performed following a previously reported protocol (J. Clin. Invest., 2005; 115(5):1221-31; Circ. Res., 2010; 106(1):193-202; Antioxid Redox Signal 2014; 20(2):267-80). After induction of anesthesia and intubation, mice were placed on a volume ventilator (120 breaths/min, 1.2 ml/g/min) and anesthesia was maintained with […] isofluorane. The aortic arch was isolated and tied against a 27-gauge needle, resulting in a 65-70% constriction after the removal of the needle. The chest and skin were closed and animals extubated and allowed to fully recover. Sham-operated mice underwent the same operation except that after the aortic arch was isolated, no ligature was placed. The ALZET osmotic pump (Model 2004) with P75^NTR peptidic antagonist (200 μg/kg/day) or saline vehicle was placed subcutaneously one week after TAC. P75^NTR antagonistic cyclic peptide (CATDIKGAEC) (SEQ ID NO: 1) was synthesized at the Johns Hopkins Synthesis and Sequencing Facility. […]
In vivo cardiac morphology and function were assessed by serial M-mode echocardiography (Acuson Sequioa C256, 13 MHz transducer, Siemens, Pa.) performed in conscious mice. […] LV percent FS, EF and LV mass were calculated as described previously. […]

[2] = system: control mouse hearts; test: LV function and coronary tone in Langendorff-perfused control mouse hearts infused with proBDNF
Description: (§1) After anesthesia, hearts were harvested and the aorta cannulated and retrogradely perfused with Krebs-Henseleit (KH) buffer warmed and gassed with 95% O2 and 5% CO2, as reported previously (Antioxid. Redox Signal, 2013; 19(11):1185-97). Briefly, hearts were paced at 600 bpm (10 Hz, 4 ms duration, 4 V) and LV function monitored with a water-filled balloon, connected to a pressure transducer coupled to a continuous data recording system. After stabilization, in addition to LV function parameters, baseline values of coronary perfusion pressure (CPP) were obtained through a side-arm of the aortic cannula connected to a separate pressure transducer.

[3] = system: isolated healthy mouse myocytes; test: Sarcomere shortening and whole Ca^2+ transient in isolated healthy mouse myocytes; type: cell-based; settings: directly applied to isolated healthy mouse myocytes
Description: Isolation of rat and mouse ventricular myocytes was carried out as previously described and approved by the Animal Care and Use Committee of Johns Hopkins University. Mice were anesthetized with intraperitoneal pentobarbital sodium (100 mg/kg). To assess for sarcomere shortening, cells were imaged using field stimulation (0.5 Hz) in an inverted fluorescence microscope (Diaphot 200; Nikon, Inc). Sarcomere length was measured by real-time Fourier transform (IonOptix MyoCam, CCCD100M). Twitch amplitude is expressed as a percentage of resting cell length. Twitch kinetics was quantified by measuring the time to peak shortening and the time from peak shortening to 50% relaxation. For whole Ca^2+ transient measurements, myocytes were loaded with the Ca^2+ indicator fluo-4/A M (Molecular Probes, 20 μM for 30 min) and Ca^2+ transients were measured under field-stimulation (0.5 Hz) in perfusion solution by confocal laser scanning microscope (LSM510, Carl Zeiss). Digital image analysis used customer-designed programs coded in Interactive Data Language (IDL).

[4] = system: isolated p75^NTR-/- whole hearts; test: LV function and coronary tone in Langendorff-perfused isolated p75^NTR-/- whole hearts infused with proBDNF; parameters: species or system mouse; settings: hearts of mice lacking p75^NTR; FIG. 7
Description: as §1

Row | Molecule | LV ejection fraction [1] | coronary perfusion pressure (CPP), vasoconstriction ([2]; FIG. 4A) | overall left-ventricle (LV) function: relaxation ([2]; FIG. 4F) | overall left-ventricle (LV) function: contractility ([2]; FIGS. 4B, D and E) | amplitude of the whole Ca^2+ transient ([3]; FIGS. 5 and 6 lower panels) | diastolic Ca^2+ levels ([3]; FIGS. 5 and 6 lower panels) | contractility (extent of sarcomere shortening) ([3]; FIGS. 5 and 6 upper panels) | LV function [4] | coronary vascular tone [4]
1 | CATDIKGAEC (also: cyclic) | preserved |  |  |  |  |  |  |  | 
2 | B1 |  | markedly higher | reducing | reducing | reduces | rise | reduces | does not alter | does not alter
